Results: the supplement of paper PMC7125110
± gives the standard error. This sample holds only a part of the variants without activity.

B1: glmS ribozyme (parent)
chain: AUAAAAGCGCCAGAACUACAGAAAUGUAGUUGACGAGGAGGAGGUUUAUCGAAUUUUCGGCGGAUGCCUCCAAA

How the values were obtained:
Details in all cases: with glucosamine-6-phosphate
[1] = variants of: B1; test: self-cleavage kobs at 640 uM GlcN6P; higher = faster cleavage; RNA array
Procedure, shortened: (§1)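 kobs was derived by fitting per-tile medians to one- or two-exponential decays after normalising signals to baseline and to non-cleaving reference variants. Those signals came from barcoded ribozyme variants transcribed in situ by E. coli RNA polymerase on sequenced MiSeq chips, followed through a hybridised Cy3 probe at 37 °C and imaged over ~14 h. Glucosamine-6-phosphate (40 μM to 10 mM) in HEPES/KCl/Mg(OAc)2 buffer was flowed in. Weighted Michaelis–Menten fits across concentrations then gave kcat and KM.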

[2] = variants of: B1; test: self-cleavage kobs at 2500 uM GlcN6P; higher = faster cleavage; RNA array
Procedure, shortened: as §1

[3] = variants of: B1; test: self-cleavage kobs at 10000 uM GlcN6P; higher = faster cleavage; RNA array
Procedure, shortened: as §1

Variant	self-cleavage kobs at 640 uM GlcN6P [1] [s⁻¹]	self-cleavage kobs at 2500 uM GlcN6P [2] [s⁻¹]	self-cleavage kobs at 10000 uM GlcN6P [3] [s⁻¹]
G41U A52C C71A	< 1e-05	< 1e-05	–
G43A U49G C50G U57C	< 1e-05	–	–
A33U G41A C58A U65G	< 1e-05	< 1e-05	–
G37U A39C A64G U69G	< 1e-05	–	–
C16G A33U A52U C61U C71U	< 1e-05	–	–
A14U A15U C68U	8.97e-05 ± 2.4e-05	0.000111 ± 3.2e-05	–
G7U A14U A52C C68A	0.00249 ± 0.001	–	–
A14U A15G G60U G66A	< 1e-05	–	–
A6C G41A U54G G59A G62C	< 1e-05	–	< 1e-05
U47G U55A C68G C71G	0.000142 ± 4.5e-05	–	4.14e-05 ± 1.5e-05
U55C C61G G62C	< 1e-05	–	–
G37A U46G C71U	6.59e-05 ± 3.1e-05	–	–
C8G A12G U49C	< 1e-05	–	–
A6U U49C U54A A64U C68U	< 1e-05	–	–
A42C G44U A64G C68G	< 1e-05	–	–
C10U C16U G32A C50G	0.000327 ± 0.00015	9.98e-05 ± 3.8e-05	–
C8A U31A C34U G60C	< 1e-05	–	–
G13U G29A U31A G37C	< 1e-05	–	–
U54A G66A C71U	0.00501 ± 0.00099	–	–
A14U A33G G38A	< 1e-05	< 1e-05	–
U45C U54G U56A	0.000123 ± 2.3e-05	0.000428 ± 0.00012	0.000928 ± 0.00017
C50G C61A C67U	0.000392 ± 0.0001	5.47e-05 ± 2.1e-05	–

Variant	self-cleavage kobs at 640 uM GlcN6P [1] [s⁻¹]	self-cleavage kobs at 2500 uM GlcN6P [2] [s⁻¹]	self-cleavage kobs at 10000 uM GlcN6P [3] [s⁻¹]
G13U G43C C67U	< 1e-05	< 1e-05	< 1e-05
G13A G40A G44U C67U C68G	< 1e-05	< 1e-05	< 1e-05
A33C U54G C71U	7.35e-05 ± 2.2e-05	0.000178 ± 4.9e-05	–
A6C G13C G51U	< 1e-05	–	–
A14C G38U G44U C68G	< 1e-05	< 1e-05	–
G7C C10A G13A A33C	< 1e-05	< 1e-05	< 1e-05
U31C G43A	< 1e-05	< 1e-05	–
A33U A48C G63A	< 1e-05	< 1e-05	–
U30C C34A	< 1e-05	–	< 1e-05
C8G G35A G44C	< 1e-05	–	< 1e-05
U31C G60U G63C	< 1e-05	–	–
G32A G35U G38C A39C U49G	< 1e-05	< 1e-05	–
U46C G51C C70U	< 1e-05	< 1e-05	–
G37U G41C G60U	< 1e-05	–	–
A14U U30G U69G C71G	0.000132 ± 4.4e-05	0.00026 ± 5.9e-05	–
G29U U45C U55G	3.35e-05 ± 1.5e-05	7.82e-05 ± 1.1e-05	–
C10U C16A A52U	< 1e-05	–	–
U30A G38C A39U	< 1e-05	–	–
G29U A33C G41A U49C G60A U65C	< 1e-05	–	–
A1U U2G A3G C70A	0.000245 ± 0.00011	–	–
G32A G66U C68G	0.000111 ± 3.9e-05	–	–
G13U U30G A48C	< 1e-05	–	< 1e-05

Variant	self-cleavage kobs at 640 uM GlcN6P [1] [s⁻¹]	self-cleavage kobs at 2500 uM GlcN6P [2] [s⁻¹]	self-cleavage kobs at 10000 uM GlcN6P [3] [s⁻¹]
C8G A12U A36C	< 1e-05	–	–
C11A U30G U54G	4.96e-05 ± 1.4e-05	0.000114 ± 2.1e-05	–
C8U C16A G35C A36U C71G	< 1e-05	< 1e-05	–
U30G A39U U45G	0.000324 ± 5.9e-05	0.00055 ± 0.0001	0.0014 ± 0.00018
A12G G44U C70G	< 1e-05	< 1e-05	–
A6U C50G U55A C71U	0.00151 ± 0.00047	–	–
G7C C71A	< 1e-05	–	< 1e-05
G51A G62C G63C	< 1e-05	–	–
A36C G41A U45G A52U	< 1e-05	–	–
G13C U31G C61U U69C	< 1e-05	–	–
A12C U49G C67U	5e-05 ± 1.4e-05	7.89e-05 ± 1.5e-05	–
C11U U30A C34U A36G U69A	0.000685 ± 0.00016	–	–
G29A G32U U56A	8.76e-05 ± 2.8e-05	0.000464 ± 0.00011	–
U46A A52C C61U	< 1e-05	< 1e-05	–
G7U C8A C10U U46C A52U	< 1e-05	–	–
A12G G43C A53G	< 1e-05	< 1e-05	–
A39G A42G C50A	< 1e-05	< 1e-05	–
G44A U46A G62A	< 1e-05	–	–
G35U G44U C68A	< 1e-05	< 1e-05	–
A14C A33C A53U U55A G60U	< 1e-05	< 1e-05	–
A6U G43U C70G	< 1e-05	–	–
A42U U47A U49A	< 1e-05	< 1e-05	–

Variant	self-cleavage kobs at 640 uM GlcN6P [1] [s⁻¹]	self-cleavage kobs at 2500 uM GlcN6P [2] [s⁻¹]	self-cleavage kobs at 10000 uM GlcN6P [3] [s⁻¹]
C8U A15G C16U U55C	< 1e-05	–	–
G32A A48U U65C	< 1e-05	–	–
C16U A53U U54G C58A	3.02e-05 ± 1.5e-05	3.59e-05 ± 1.1e-05	0.000172 ± 2e-05
G29U U55G G59U C70G	0.00019 ± 4.5e-05	–	–
A14C A42U A64U	< 1e-05	< 1e-05	–
G60U G63U C70A	< 1e-05	–	–
C11U G41C C67U	< 1e-05	–	–
U45G G60A C67G	< 1e-05	< 1e-05	–
G9U C34U U55C G60C G63A	< 1e-05	–	–
G35C G43U G60C	< 1e-05	–	< 1e-05
G13U A48C G59U G66U	< 1e-05	–	–
C10A A42G U47C C50G C70U	< 1e-05	–	–
G29C G40C C58G	< 1e-05	–	–
C8U G13C A14C	< 1e-05	< 1e-05	–
G40A G41A A42U C68G	< 1e-05	< 1e-05	–
G35A C50U C67G C70U	< 1e-05	–	–
C8G C58U	< 1e-05	< 1e-05	< 1e-05
G29U C34U U55A	< 1e-05	< 1e-05	–
A14G G35U A52U	< 1e-05	–	–
A14C G40U C67U	< 1e-05	–	–
A15C A36G U55A	< 1e-05	< 1e-05	–
G7U G35U A42G	< 1e-05	< 1e-05	–

Variant	self-cleavage kobs at 640 uM GlcN6P [1] [s⁻¹]	self-cleavage kobs at 2500 uM GlcN6P [2] [s⁻¹]	self-cleavage kobs at 10000 uM GlcN6P [3] [s⁻¹]
A14G C16U U45A G51U C61G	< 1e-05	–	–
A6C G38A C50G C67U	0.000113 ± 4.8e-05	7.23e-05 ± 1.8e-05	4.13e-05 ± 1.3e-05
A15C G44C C50U	< 1e-05	< 1e-05	–
G35U A39G G43A	< 1e-05	< 1e-05	–
A64U C67U C71U	< 1e-05	–	–
A33U A42U G44C	< 1e-05	–	–
G9C G38U U45C	< 1e-05	–	–
U31A A42U G59U	< 1e-05	–	–
G9U C10U G38U G44C U49C	< 1e-05	–	–
G40C U45C A48G	< 1e-05	< 1e-05	–
A52C A53C U55C C67G	< 1e-05	< 1e-05	–
G35U A42U G63C	< 1e-05	–	–
G7C U45G A53U A64G	< 1e-05	–	–
A36G G40U A52U U65C	< 1e-05	–	–
G29A C34U G60U	< 1e-05	–	–
G13C G40C A42C	< 1e-05	< 1e-05	–
C34A U46G G62C	< 1e-05	–	–
A36G U47A	< 1e-05	–	–
G38C G44U G51C A52C C71U	< 1e-05	–	–
A12U G32A G41C G62U C68U	< 1e-05	< 1e-05	–
A33C G35A G41A	< 1e-05	< 1e-05	–
A12G C16U U49A	< 1e-05	–	–

Variant	self-cleavage kobs at 640 uM GlcN6P [1] [s⁻¹]	self-cleavage kobs at 2500 uM GlcN6P [2] [s⁻¹]	self-cleavage kobs at 10000 uM GlcN6P [3] [s⁻¹]
C16A A36G U65G C71U	< 1e-05	–	–
C8G G32U G44C	< 1e-05	–	–
G9A C50U	< 1e-05	< 1e-05	< 1e-05
G7C A36C U56A	< 1e-05	–	–
C10U G29U U55G	< 1e-05	< 1e-05	–
G32A G44U A53C	< 1e-05	< 1e-05	–
C8A G32C	< 1e-05	< 1e-05	< 1e-05
C10A C16A A36C A42G U46A U54C U56G G63U	< 1e-05	–	< 1e-05
A14C G37A A39U C68A	< 1e-05	–	–
G9U C34U A39G	< 1e-05	–	–
A14G A15U A48U U69C	6.32e-05 ± 2.6e-05	–	7.49e-05 ± 2e-05
G41C G51U A64C	< 1e-05	< 1e-05	–
G41U C58G C61U A64U C71U	< 1e-05	–	–
A6G A15C G32U	< 1e-05	–	–
C34U G51A U57G U69G	0.000271 ± 9.8e-05	–	0.000296 ± 7.8e-05
C8G G32U	< 1e-05	< 1e-05	–
U31C G35C C50U	< 1e-05	< 1e-05	–
A6U C16U G41U	< 1e-05	–	–
U46C G51U A52G U55A C61G	< 1e-05	< 1e-05	–
A36C G38C G43U U54G U56C	< 1e-05	–	–
A6G A39C G63U A64U C67G	< 1e-05	–	< 1e-05
